Test results as given in US20220226469A1 (ARCH ONCOLOGY, published 2022).

B1: SIRP9 (antibody, V domains shown)
VH: EVQLQESGAELVRPGASVKLSCKALGYTFTDYEIHWVKETPVYGLEWIGDIHPGSGGTANNQKFKGKATLTADKSSNTAYMELSSLTSEDSAVYYCTRAVSGYYAMDYWGQGTSVTVSS
VL: DIQMTQSSSSFSGSLGDRLTINCKASEDIYDRVAWYQQKPGNAPRLLISGTASLETGVLSRFSGSGSGKDYTLSINGLQAEDVATYYCQQYWTTPWTFGGGTKLEIK
notes: anti-mouse secondary
B2: SIRP4 (antibody, V domains shown)
VH: EVQLQQSGPDLVKPGASVKISCKASGYSFTDYFLNWVKQSHGKSLEWIGRINPYNGDSFINQNFRDKATLTVDKSSTTAHMDLLSLTSEDSAIYYCGRGGYDGYFIAYFDYWGQGSLVTVSA
VL: DIKLTQSQSSMYSSLGQRVTITCKASQDINSHLSWFQEKPGKSPKTLIYRANRLADGVPSRFSGSGSGQDYFLTISSLEYEDVGIYYCLQYDEFPYTFGGGTKLEIK
notes: anti-mouse secondary
B3: SIRP5 (antibody, V domains shown)
VH: QVQLQQSAAELARPGASVKMSCKASGYTFTSYTMHWVKQRPGQGLEWIGYINPTIGYTEYNQKFKDKTTLTADKSSSTAYMQLSSLTSEDSAVYYCVRLVITSVLGRAMDYWGQGTSVTVSS
VL: QIVLTQSPALMSASPGEKVTMTCSASSSVSYMYWFQQKPRSSPKPWIYLTSNLASGVPARFSGSGSGTSYSLTISSMEAEDAATYYCQQWSGNPFTFGSGTKLEIK
B4: KWAR-23 (antibody, V domains shown)
VH: EVQLQQSGAELVKPGASVKLSCTASGFNIKDYYIHWVQQRTEQGLEWIGRIDPEDGETKYAPKFQDKATITADTSSNTAYLHLSSLTSEDTAVYYCARWGAYWGQGTLVTVSA
VL: QIVLTQSPAIMSASPGEKVTLTCSASSSVSSSYLYWYQQKPGSSPKLWIYSTSNLASGVPARFSGSGSGTSYSLTISSMEAEDAASYFCHQWSSYPRTFGAGTKLELKR
B5: SIRP3 (antibody, mouse IgG1, kappa, V domains shown)
VH: EVQLQQSGPEVVKPGASVKMSCKASGYTFTSYVMHWVKQKPGQGLEWIGYINPYNDGPKYNEKFKGKATLTSDKSSSTAYMELSSLTSEDSAVYFCARWDYFNSASGFAFWGQGTLVTVSA
VL: EIVLTQSPTTMAASPGEKITIICSASSIIGSDFLHWYQQRPGFSPKFLIYRTSILASGVPTRFTGSGSGTSYSLTIGTMEAEDVATYYCQQGSGLPLTFGSGTKLEMKR
notes: Hybridoma-derived mouse mAb
B6: SIRP2 (antibody, mouse IgG1, kappa, V domains shown)
VH: EVKLVESGGGLVQPGGSLKLSCAASGFSFSGCTMSWIRQTPERRLEWVAYISNGGDITYYPDTVKGRFTISRDNAKNSLYLQMSSLKSEDTAMYYCARLDGYYYAMDFWGQGTSVTVSS
VL: DILLTQSPAILSVSPGERVSFSCRASQSIGTSIHWYQQRTNGSPRLLIKYGSESISGIPSRFSGSGSGTDFTLSINSVESEDIADYYCQQSNTWPLTFGDGTKLELKR
notes: Hybridoma-derived mouse mAb
B7: SIRP7 (antibody, V domains shown)
VH: EVQLQQSGPELVKPGASVKMSCRASGYTFSTYVMHWIKHRPGQGLEWIGYINPNNDGPNYNEKFKGKATLTSDISSSTAYMELSSLTSEDSAVYFCSRWDSYNSAAGFAYWGHGTLVTVSA
VL: EIVLTQSPTTMAASPGEKITIICSASSSISSNFLHWYQQKPGFSPRFLIYRTSILASGVPTRFSGSGSGTSYSLTIDTMEAEDVATYYCQQGSGLPLTFGSGTKLEIK

biological target: T1, human SIRPα expressed on cells (THP-1 cells, human monocyte-derived macrophages, dendritic cells) (human, UniProt P78324 31-504); assay: flow cytometry on human monocyte-derived macrophages; apparent Kd
T1 construct: Endogenous SIRPα of cell line or donor cells; also called cell-expressed SIRPα; macrophage expressed SIRPα
T1 sequence (P78324 other isoform, or with tags, fused parts or gaps): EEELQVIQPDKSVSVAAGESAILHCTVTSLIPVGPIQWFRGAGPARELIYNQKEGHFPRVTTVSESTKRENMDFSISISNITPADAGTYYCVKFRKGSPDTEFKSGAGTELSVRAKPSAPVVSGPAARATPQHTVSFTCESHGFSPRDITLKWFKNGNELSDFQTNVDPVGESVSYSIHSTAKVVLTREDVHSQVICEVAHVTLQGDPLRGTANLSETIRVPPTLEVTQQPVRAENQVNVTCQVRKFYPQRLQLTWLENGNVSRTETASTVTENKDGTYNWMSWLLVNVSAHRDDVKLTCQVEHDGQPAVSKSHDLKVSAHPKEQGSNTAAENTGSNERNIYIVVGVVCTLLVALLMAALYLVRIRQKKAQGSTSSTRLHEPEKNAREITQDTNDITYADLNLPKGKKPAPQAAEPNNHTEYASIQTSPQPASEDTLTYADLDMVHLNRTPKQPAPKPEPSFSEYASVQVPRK
Protocol: (§1) Human CD14⁺ monocytes, isolated from peripheral blood mononuclear cells (Astarte Biologics) were differentiated in vitro for seven days into macrophages or dendritic cells. For macrophage differentiation, monocytes were incubated in AIM-V media (Life Technologies) supplemented with 50 ng/ml M-CSF (Biolegend) for seven days. For dendritic cell differentiation, monocytes were incubated in AIM-V media (Life Technologies) in the presence of 10% human AB serum (Valley Biomedical), 200 ng/ml GM-CSF (Biolegend) and 50 ng/ml IL-4 (Biolegend). The cells were incubated for 1 h at 37° C., 5% CO₂ with serial dilutions of SIRP mAbs in binding buffer containing 1 mM EDTA (Sigma Aldrich) and 1% FBS (Biowest) in PBS (Corning). The cells were then washed and stained for 45 min under the same conditions with donkey anti-mouse IgG fluorescein isothiocyanate (FITC)-linked secondary antibody (Jackson ImmunoResearch Laboratories). The cells were subsequently stained with anti-CD14 or anti-CD11c conjugated to Alexa Fluor 647 fluorophore (Life Technologies and Biolegend, respectively) for 30 min on ice, washed and analyzed by flow cytometry (Attune, Life Technologies). Binding was assessed as the median FITC fluorescence intensity of CD14⁺ or CD11c⁺ cells, subtracted from cells stained with the secondary antibody only.

Binder | Kd [nM]
B1 | 0.0937
B2 | 0.0207

biological target: T1, human SIRPα expressed on cells (THP-1 …); assay: flow cytometry on human monocyte-derived dendritic cells; apparent Kd
Protocol: as §1

Binder | Kd [nM]
B3 | 0.77
B4 | 0.0234
B5 | 0.00347
B2 | 0.05

biological target: T2, HIS tagged human SIRPα (ACRO #SIG-H5225) (human, UniProt P78324 31-373); assay: blocking ELISA on plate-coated HIS tagged human SIRPα; competitor Fc tagged human CD47 (250 ng/ml)
T2 construct: Bought protein; also called Histidine (HIS) tagged human SIRPα; not shown: histidine tag
T2 sequence (P78324 31-373 limits assumed): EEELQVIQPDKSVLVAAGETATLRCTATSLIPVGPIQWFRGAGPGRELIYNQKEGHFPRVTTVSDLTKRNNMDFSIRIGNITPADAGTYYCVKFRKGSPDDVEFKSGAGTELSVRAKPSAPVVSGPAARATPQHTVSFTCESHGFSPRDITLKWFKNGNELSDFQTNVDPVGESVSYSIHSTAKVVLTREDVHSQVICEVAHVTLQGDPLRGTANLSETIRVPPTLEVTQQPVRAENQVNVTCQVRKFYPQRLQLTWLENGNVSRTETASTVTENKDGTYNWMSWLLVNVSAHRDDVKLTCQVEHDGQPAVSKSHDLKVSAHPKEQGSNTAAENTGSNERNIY
Protocol: HIS tagged human SIRPα (ACRO #SIG-H5225) is adsorbed to high-binding microtiter plates at a concentration of 1 μg/ml diluted in PBS overnight at 4° C. The coating solution is removed, the wells are washed and then blocked with […] in PBS containing 0.5% Tween 20 (PBST) for 60 minutes at room temperature while shaking. Blocking solution is removed, the wells are washed and incubated for 60 minutes at room temperature while shaking with anti-SIRP mAbs diluted in PBST at a starting concentration of 30 μg/ml and reducing the concentration by 3-fold serial dilutions. Wells are washed three times with PBST and incubated for 60 minutes at room temperature while shaking with an FC tagged human CD47 (ACRO #CD7-H5256) at a concentration of 250 ng/ml in PBST. Wells are washed three times with PBST and incubated for 60 minutes at room temperature while shaking with an HRP labeled donkey anti-mouse or anti-human secondary antibody (Jackson ImmunoResearch Laboratories) diluted 1:20,000 in PBST. The wells are washed and then incubated with peroxidase substrate and the absorbance at 450 nm determined. The IC₅₀ was calculated using a non-linear fit model (GraphPad Prism).

Binder | IC50 [nM]
B6 | 3
B5 | 2.7
B2 | 0.71
B7 | 1.1
